Reference: patent US20050138692A1
Values joined by “and” are separate entries in the source; they are usually repeats but may differ in a detail not shown here. Equal values may be shown once.

Biological target: native Ag GA733-2 on colorectal carcinoma cell line SW948 (human) (UniProt P16422)
Test: cell ELISA on fixed SW948 cells, antibody at 0.93 ug/ml

Chain of UniProt P16422 (P16422 24-314): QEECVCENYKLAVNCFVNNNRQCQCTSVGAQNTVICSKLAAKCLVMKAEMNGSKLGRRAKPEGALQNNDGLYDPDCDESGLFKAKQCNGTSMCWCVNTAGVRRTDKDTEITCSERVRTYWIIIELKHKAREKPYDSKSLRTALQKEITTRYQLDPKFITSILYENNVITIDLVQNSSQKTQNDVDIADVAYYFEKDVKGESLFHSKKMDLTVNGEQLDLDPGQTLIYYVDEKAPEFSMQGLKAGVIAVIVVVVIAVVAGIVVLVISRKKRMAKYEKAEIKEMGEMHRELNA

absorbance (absorbance (OD)): 0.933 and 0.896
Substance: MAb CO17-1A purified from the hybridoma supernatant (antibody)
